Results: US20210261650A1 (published 2021)

What was measured:
[1] = biological target: SARS-CoV-1 S protein expressed on ExpiCHO cells (SARS-CoV-1, UniProt P59594 14-1255); assay: flow
[2] = biological target: SARS-CoV-1 RBD (Sino Biological) (SARS-CoV-1, UniProt P59594 306-527); assay: BLI
[3] = biological target: SARS-CoV-2 Spike (S) protein, strain BetaCoV/Wuhan-Hu-1/2019, expressed on ExpiCHO cells (UniProt P0DTC2 14-1273); assay: flow

B1: SARS-CoV-2 S304 mAb (antibody, V domains shown)
VH: EVQLVESGGGLVQPGGSLRLSCAASGFTFSSYDMHWVRQTTGKGLEWVSTIGTAGDTYYPDSVKGRFTISREDAKNSLYLQMNSLRAGDTAVYYCARGDSSGYYYYFDYWGQGTLLTVSS
VL: DIQMTQSPSSLSAAVGDRVTITCRASQSIGSYLNWYQQKPGKAPKLLIYAASSLQSGVPSRFSGSGSGTDFTLTISSLQPEDFAIYYCQQSYVSPTYTFGPGTKVDIK
Binder B1 has an EC50 [1] of 11.4 ng/mL.

B2: SARS-CoV-2 S303 mAb (antibody, V domains shown)
VH: EVQLVESGGGLVKPGGSLRLSCAASGFTFLTYSMNWVRQTPGKRLQWVSAISGSGGATYYADSVKGRFTISRDNSKNTLYLQMNTVTADDTAIYFCARERDDIFPMGLNAFDIWGQGAMVIVSS
VL: DIQMTQSPSTLSASVGDRVTITCRASQSISNWLAWYQQKPGKAPKLLIYKASSLESGVPSRFSGSGSGTEFTLTISSLQPDDSATYYCQQYDTYSWTFGQGTKVEIK
B2 showed a Kd [2] of 0.869 nM and an EC50 [1] of 1.06 ng/mL.

B3: SARS-CoV-2 S306 mAb (antibody, V domains shown)
VH: QVQLVQSGAEVKKPGASVKVSCKASTYTFTSFGISWVRQAPGQGLEWMGWITTYSGDTNYAQKFQGRVTMTTDTSTNTAYMELRSLRSDDTAVYYCASDYFDSSGYYHSFDYWGQGTLVTVSS
VL: EIVLTQSPDTLSLSPGERATLSCRASQSVSSYLAWYQQRPGQAPRLLIYDASKRATGIPARFSGSGSGTDFTLTISSLEPEDFAVYYCQQRSNWPPGCSFGQGTKVEIK
With B3 the EC50 [3] was 1.42 ng/mL and the EC50 [1] was 20.8 ng/mL.

B4: SARS-CoV-2 S315 mAb (antibody, V domains shown)
VH: EVQLVESGGGLVQPGGSLRLSCAASGFTFSNYWMTWVRQAPGKGLEWVANIKQDGSEKYYVDSVKGRFTISRDNAKNSLYLQMNSLRAEDTAVYYCARDLWWNDQAHYYGMDVWGQGTTVTVSS
VL: SYELTQPPSVSVSPGQTARITCSGDAFPNQYAYWYQQKPGQAPVMLIYKDSERPSGIPERFFGSSSGTTVTLTIRGVQAEDEADYYCQSADSSGTVFGGGTKLTVL
B4 gave an EC50 [1] of 7.59 ng/mL.

B5: SARS-CoV-2 S310 mAb (antibody, V domains shown)
VH: QVQLVQSGAELKKPGSSVKVSCKASGGTFNSYSFNWVRQAPGQGLEWLGGIIPVLGTSNYAQKFQGRVAVTADEFTTTAYMELSSLRSEDTAVYYCATRTYDSSGYRPYYYGLDVWGQGTPVTVSS
VL: QSALTQPASVSGSPGQSITISCTGTSSDVGSYNLVSWYQQRPGKAPELMIYEVTKRPSGLSNRFSGSKSGNTASLTISGLQAEDEADYYCCSYAGSDTVIFGGGTKVTVL
Binder B5 has an EC50 [1] of 254 ng/mL.
